{
  "source": "paper PMC10312975",
  "about": "(Research Square, 2023)",
  "binders": {"B1": {"name": "CCDC22 DBD (280-446), untagged (domain or fragment, human, UniProt O60826 280-446, looked up)", "chain": "GAGAKTGAPKGSRFTHSEKFTFHLEPQAQATQVSDVPATSRRPEQVTWAAQEQELESLREQLEGVNRSIEEVEADMKTLGVSFVQAESECRHSKLSTAEREQALRLKSRAVELLPDGTANLAKLQLVVENSAQRVIHLAGQWEKHRVPLLAEYRHLRKLQDCRELES", "notes": "CCDC22, human, DBD; source: E. coli BL21 (DE3) T1R, purified, MBP removed with TEV; not shown: MBP, N-terminal, cleaved"}},
  "conditions_in_all_cases": "both partners purified",
  "key": {"[1]": {"target": "T1, DENND10, full length, His6 tag removed (human, UniProt Q8TCE6 1-357)", "T1 construct": "DENND10 (FAM45A), human, codon-optimised gene; source: E. coli BL21 (DE3) T1R, purified (Source 15Q, TEV cleavage, Source 15Q); not shown: His6, N-terminal, cleaved", "T1 sequence (Q8TCE6 whole entry)": "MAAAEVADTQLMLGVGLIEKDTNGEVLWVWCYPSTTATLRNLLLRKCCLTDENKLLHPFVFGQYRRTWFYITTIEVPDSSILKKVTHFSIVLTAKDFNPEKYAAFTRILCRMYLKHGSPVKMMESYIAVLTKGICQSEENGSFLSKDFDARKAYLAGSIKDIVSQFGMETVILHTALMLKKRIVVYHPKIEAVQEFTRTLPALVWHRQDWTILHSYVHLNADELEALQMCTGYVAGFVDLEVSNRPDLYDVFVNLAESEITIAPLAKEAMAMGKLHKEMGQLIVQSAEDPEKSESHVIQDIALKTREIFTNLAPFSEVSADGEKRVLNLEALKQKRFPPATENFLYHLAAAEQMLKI", "assay": "SEC; untagged DBD dimer and DENND10, alone and mixed; Superdex 200, 100 mM NaCl, 10 mM HEPES pH 7.0, 5% glycerol, 1 mM DTT; SDS-PAGE of fractions"}, "[2]": {"target": "B1", "assay": "SEC; untagged DBD dimer and DENND10, alone and mixed; Superdex 200, 100 mM NaCl, 10 mM HEPES pH 7.0, 5% glycerol, 1 mM DTT; SDS-PAGE of fractions"}, "[3]": {"target": "T2, His6-Tev-DENND10, full length (pull-down prey) (human, UniProt Q8TCE6 1-357)", "T2 construct": "DENND10 (FAM45A), human, codon-optimised gene; source: E. coli BL21 (DE3) T1R, purified (Ni-NTA, Source 15Q, Superdex Increase 200)", "T2 sequence (Q8TCE6 whole entry)": "as above", "assay": "pull-down; MBP-tagged DBD dimer (200 pmol) as bait on amylose beads, DENND10 (500 pmol) as prey; 10 mM HEPES pH 7, 150 mM NaCl, 5% glycerol, 0.05% Triton X-100, 5 mM beta-mercaptoethanol, 4 °C, 30 min; Coomassie"}, "MBP-CCDC22 (280-446)": {"target": "T3, MBP-CCDC22 (280-446) (human, UniProt O60826 280-446)", "T3 construct": "CCDC22, human, DBD; also called MBP-CCDC22 DBD; source: E. coli BL21 (DE3) T1R, purified (amylose); not shown: MBP, N-terminal, kept", "assay": "reconstitution by mixing and co-purification; amylose-purified MBP-tagged CCDC22 and CCDC93 fragments mixed about 1:1, overnight at 4 °C, then Source 15Q and Superdex 200"}},
  "data": [
    {"binder": "B1", "values": [
      {"measurement": "binding result", "setting": "[1]", "value": "binds"}
    ]},
    {"binder": "CCDC93 DBD (305-433), untagged (domain or fragment, human, UniProt Q567U6 305-433, looked up, CCDC93, human, DBD; source: E. coli BL21 (DE3) T1R, purified, MBP removed with TEV; not shown: MBP, N-terminal, cleaved) SPEKLGTSQLHRRKVISLNKQIAQKTKHLEELRASHTSLQARYNEAKKTLTELKTYSEKLDKEQAALEKIESKADPSILQNLRALVAMNENLKSQEQEFKAHCREEMTRLQQEIENLKAERAPRGDEKT", "values": [
      {"measurement": "binding result", "setting": "[2]", "value": "binds"},
      {"measurement": "binding result", "setting": "[1]", "value": "binds"}
    ]},
    {"binder": "MBP-tagged CCDC22-CCDC93 DBD dimer (complex, human, CCDC22, human, DBD (CC1, CC2a); CCDC93, human, DBD (CC1, CC2a); also called DBD heterodimer; source: E. coli BL21 (DE3) T1R, purified (amylose, mixed about 1:1, Source 15Q, Superdex 200); not shown: MBP, N-terminal, kept) chain 1: GAGAKTGAPKGSRFTHSEKFTFHLEPQAQATQVSDVPATSRRPEQVTWAAQEQELESLREQLEGVNRSIEEVEADMKTLGVSFVQAESECRHSKLSTAEREQALRLKSRAVELLPDGTANLAKLQLVVENSAQRVIHLAGQWEKHRVPLLAEYRHLRKLQDCRELES chain 2: SPEKLGTSQLHRRKVISLNKQIAQKTKHLEELRASHTSLQARYNEAKKTLTELKTYSEKLDKEQAALEKIESKADPSILQNLRALVAMNENLKSQEQEFKAHCREEMTRLQQEIENLKAERAPRGDEKT", "values": [
      {"measurement": "binding result", "setting": "[3]", "value": "binds"}
    ]},
    {"binder": "MBP-tagged CCDC22-CCDC93 DBD dimer, CCDC93 E410R (complex, human, CCDC22, human, DBD; CCDC93, human, DBD; source: E. coli BL21 (DE3) T1R, purified; not shown: MBP, N-terminal, kept) chain 1: GAGAKTGAPKGSRFTHSEKFTFHLEPQAQATQVSDVPATSRRPEQVTWAAQEQELESLREQLEGVNRSIEEVEADMKTLGVSFVQAESECRHSKLSTAEREQALRLKSRAVELLPDGTANLAKLQLVVENSAQRVIHLAGQWEKHRVPLLAEYRHLRKLQDCRELES chain 2: SPEKLGTSQLHRRKVISLNKQIAQKTKHLEELRASHTSLQARYNEAKKTLTELKTYSEKLDKEQAALEKIESKADPSILQNLRALVAMNENLKSQEQEFKAHCRERMTRLQQEIENLKAERAPRGDEKT", "values": [
      {"measurement": "binding result", "setting": "[3]", "value": "binds"}
    ]},
    {"binder": "MBP-CCDC93 (305-433) (domain or fragment, human, UniProt Q567U6 305-433, looked up, CCDC93, human, DBD; also called MBP-CCDC93 DBD; source: E. coli BL21 (DE3) T1R, purified (amylose); not shown: MBP, N-terminal, kept) SPEKLGTSQLHRRKVISLNKQIAQKTKHLEELRASHTSLQARYNEAKKTLTELKTYSEKLDKEQAALEKIESKADPSILQNLRALVAMNENLKSQEQEFKAHCREEMTRLQQEIENLKAERAPRGDEKT", "values": [
      {"measurement": "binding result", "setting": "MBP-CCDC22 (280-446)", "value": "binds"}
    ]}
  ]
}
